Laboratory results published in publication PMC2877398 (Structure (London, England : 1993), 2010).
Values joined by “and” are separate entries in the source; they are usually repeats but may differ in a detail not shown here. Equal entries are not always repeated.

Key:
[1] = biological target: T1, S. cerevisiae RNA guanylyltransferase Ceg1 (1–459), full length (S. cerevisiae, UniProt Q01159 1-459); experiment: SEC
T1 sequence (looked up): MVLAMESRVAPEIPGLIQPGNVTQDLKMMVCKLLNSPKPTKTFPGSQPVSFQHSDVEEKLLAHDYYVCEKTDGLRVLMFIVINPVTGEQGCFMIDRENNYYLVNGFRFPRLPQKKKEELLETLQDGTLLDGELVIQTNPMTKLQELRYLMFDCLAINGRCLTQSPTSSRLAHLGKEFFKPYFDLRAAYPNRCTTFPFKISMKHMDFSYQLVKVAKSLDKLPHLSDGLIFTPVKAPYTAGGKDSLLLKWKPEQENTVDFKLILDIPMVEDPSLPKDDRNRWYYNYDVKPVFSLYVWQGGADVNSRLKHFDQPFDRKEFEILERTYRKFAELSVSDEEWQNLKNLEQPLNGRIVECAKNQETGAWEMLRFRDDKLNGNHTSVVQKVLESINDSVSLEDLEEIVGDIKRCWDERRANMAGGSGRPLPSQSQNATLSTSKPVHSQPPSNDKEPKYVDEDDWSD

crystal structure = biological target: the molecule itself; experiment: crystal structure

B1: S. cerevisiae RNA triphosphatase Cet1 (241–549) (domain or fragment, UniProt O13297 241-549, looked up)
chain: YRNVPIWAQKWKPTIKALQSINVKDLKIDPSFLNIIPDDDLTKSVQDWVYATIYSIAPELRSFIELEMKFGVIIDAKGPDRVNPPVSSQCVFTELDAHLTPNIDASLFKELSKYIRGISEVTENTGKFSIIESQTRDSVYRVGLSTQRPRFLRMSTDIKTGRVGQFIEKRHVAQLLLYSPKDSYDVKISLNLELPVPDNDPPEKYKSQSPISERTKDRVSYIHNDSCTRIDITKVENHNQNSKSRQSETTHEVELEINTPALLNAFDNITNDSKEYASLIRTFLNNGTIIRRKLSSLSYEIFEGSKKVM
stoichiometry N [1]: 2 Cet1 protomers per Ceg1 (2:1) and 1 Cet1 protomers per Ceg1 (2:2)
stoichiometry N (crystal structure): 2 protomers
